Reference: publication PMC6823927 (Bioconjugate chemistry, 2018)

Molecular target: extracellular domain of HER2 (Homo sapiens, UniProt P04626)
Experiment: SPR

Row | binding result | Binder
1 | binds | parental Fab (meditope-enabled trastuzumab Fab, Ala175) (Fab, V domains shown) VH: not shown VL: DIQMTQSPILLSASVGDRVTITCRASQDVNTAVAWYQQRTNGSPRLLIYSASFLYSGVPSRFSGSRSGTDFTLTISSLQPEDEADYYCQQHYTTPPTFGAGTKVEIK
2 | binds | 175Cys-Fab (meditope-enabled trastuzumab Fab with Ala175 of the heavy chain changed to cysteine) (Fab, V domains shown) VH: not shown VL: DIQMTQSPILLSASVGDRVTITCRASQDVNTAVAWYQQRTNGSPRLLIYSASFLYSGVPSRFSGSRSGTDFTLTISSLQPEDEADYYCQQHYTTPPTFGAGTKVEIK
